Assay results: patent US20160244499A1
One block for each substance: values may come before it.

Legend:
[1] = biological target: C-terminally biotinylated IL-13Rα1 ectodomain (human) (UniProt P78552); assay: Table 1, affinity for IL-13Rα1; method for this row not stated
[2] = biological target: T1, γc on human cell lines (Ramos, HH, U937) (human) (UniProt P31785); assay: cell-based or functional assay
T1 sequence (looked up): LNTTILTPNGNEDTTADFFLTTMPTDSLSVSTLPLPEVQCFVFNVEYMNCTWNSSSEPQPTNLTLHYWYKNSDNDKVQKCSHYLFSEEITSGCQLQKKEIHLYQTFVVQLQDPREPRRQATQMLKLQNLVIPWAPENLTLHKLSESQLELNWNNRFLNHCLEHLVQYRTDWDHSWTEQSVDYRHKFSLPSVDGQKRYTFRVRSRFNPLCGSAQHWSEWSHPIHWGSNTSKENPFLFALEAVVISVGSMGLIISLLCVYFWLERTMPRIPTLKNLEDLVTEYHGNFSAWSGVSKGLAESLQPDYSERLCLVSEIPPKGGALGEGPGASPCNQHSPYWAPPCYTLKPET

[3] = biological target: C-terminally biotinylated γc ectodomain (human) (UniProt P31785); assay: SPR (Biacore T100), biotinylated γc on SA chip, cytokine/IL-4Rα complex as analyte, 1:1 model
[4] = biological target: C-terminally biotinylated IL-13Rα1 ectodomain (human) (UniProt P78552); assay: SPR (Biacore T100), biotinylated IL-13Rα1 on SA chip, cytokine/IL-4Rα complex as analyte, 1:1 model
[5] = biological target: C-terminally biotinylated γc ectodomain (human) (UniProt P31785); assay: SPR, cytokine/IL-4Rα complex on immobilised γc
[6] = biological target: C-terminally biotinylated γc ectodomain (human) (UniProt P31785); assay: SPR, comparison of affinities for γc and IL-13Rα1
[7] = biological target: C-terminally biotinylated IL-13Rα1 ectodomain (human) (UniProt P78552); assay: SPR (Biacore T100), biotinylated IL-13Rα1 on SA chip, cytokine/IL-4Rα complex as analyte

wild-type IL-4, free recombinant cytokine, sequence (P05112 other isoform, or with tags, fused parts or gaps): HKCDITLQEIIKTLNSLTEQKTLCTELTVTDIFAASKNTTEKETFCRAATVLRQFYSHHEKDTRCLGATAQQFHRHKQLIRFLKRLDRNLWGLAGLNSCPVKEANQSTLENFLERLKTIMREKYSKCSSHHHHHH

- Kd [1]: 0.03 µM
Substance: IL-13 (from UniProt P35225 35-146) (ligand)

- mean MFI of STAT6 phosphorylation, Ramos cells, 100 pg/ml, 20 minute stimulation [2]: 7.7 MFI
- percentage decrease in STAT6 phosphorylation caused by 50 µg/ml of anti-γc, Ramos cells, 100 pg/ml cytokine [2]: 58%
- reduction in STAT6 phosphorylation on blocking γc in U937 cells [2]: 44%
Substance: wild-type IL-4, free recombinant cytokine (from UniProt P05112 25-153) (ligand)

- Kd [3]: 3.3 µM
- koff [3]: 0.31 s⁻¹
- kon [3]: 95000 M⁻¹ s⁻¹
- Kd [4]: 4.2 µM
- koff [4]: 0.17 s⁻¹
- kon [4]: 41000 M⁻¹ s⁻¹
Substance: wild-type IL-4/IL-4Rα binary complex (from UniProt P24394 26-202)

- fold faster on-rate (against IL-4) [5]: 6 fold
- fold higher affinity (against IL-4/IL-4Rα) [5]: 3700 fold
- logs gained in binding affinity (against IL-4) [5]: 4 log
- selectivity for the Type-I receptor complex over the Type-II receptor [6]: 6 log
- Kd [7]: 21 µM
- Kd [3]: 0.00089 µM
- koff [3]: 0.00059 s⁻¹
- kon [3]: 660000 M⁻¹ s⁻¹
Substance: RGA/IL-4Rα binary complex (from UniProt P24394 26-202)
